Experimental data from patent publication US20260144862A1, “MATERIALS AND METHODS TO TREAT EPSTEIN-BARR VIRUS (EBV) AND EBV-INDUCED DISEASES” (Medizinische Universität Wien, priority 2022, published 2026).

Key:
[1] = tested on: EBV B95-8 isolate; assay: Virus (EBV) dissemination assay in K562-CR2-HLA-E cells; format: cell-based, Epstein-Barr virus; conditions: for viral spread (BZLF1+ K562-CR2-HLA-E cells); effect of peptide on NKG2A+ NK or NKG2A+ CD8+ T cell mediated prevention of the viral spread: 300 μM LMP-1 peptide, 2-14 days of co-culture
Procedure: For the virus dissemination assays, the marmoset B-lymphoblastoid cell line B95-8 was cultured in RPM1 1640 medium supplemented with 20 mM glutamine, 50 µg/ml gentamicin, 0.2 µg/ml amphotericin B and 10% FCS (Thermo-Scientific). Cells were then cultured in the presence of […] (Biomol) for two weeks. EBV was harvested from the supernatant and enriched by ultracentrifugation (30000 U/min, 90 min, 10° C.). The virus stocks were stored at −80° C. in RPMI 1640 medium+10% FCS+10% DMSO (all: Thermo-Scientific). The multiplicity of infection (MOI) of the viral stocks was determined on K562-CR2-HLA-E*0101/0101 and K562-CR2-HLA-E*0103/0103 cells by flow-cytometry.
RMA-S/HLA-E/LFA-3 cells (kindly provided by Chiara Romagnani, DRFZ, Berlin) were maintained in RPMI-1640+20 mM glutamine+10% FCS+20 μM β-mercaptoethanol+100 U/ml penicillin-streptomycin (all Thermo Fisher)+400 μg/ml hygromycin B+1 mg/ml G418 (both InvivoGen). 2×10^6 RMA-S/LFA3/HLA-E cells were incubated for 16 h at 37° C., 5% CO2, with 300 μM of respective peptides (Peptides&Elephants) in 1 ml serum-free OptiMEM (Thermo-Fisher). Cells were afterwards inactivated using 20 μg/mL Mitomycin C (Sigma Aldrich) at 37° C. for 30 minutes. Peptide pulsed RMA-S/LFA3/HLA-E cells were co-cultured with […] CFSE (Thermo-Fisher) stained CD56^+ or CD8^+ MACS-enriched cells for 7 days in RPMI+10% FCS. Proliferating (CFSE^low) NKG2A^+CD56^+ NK cells, NKG2A^+ CD8^+ T cells or […]-specific, HLA-E-restricted NKG2A^+ or NKG2A^− T cells were then sorted by FACS as described below.
Fresh K562-CR2-HLA-E*0101/0101 and K562-CR2-HLA-E*0103/0103 cells were then inactivated using 20 μg/mL Mitomycin C at 37° C. for 30 minutes and then infected with the EBV B95-8 isolate (MOI=1) for 24 h. The infected cells were then co-cultured together with the sorted NKG2A^+ CD56^+ NK cells, NKG2A^+ CD8^+ T cells or […]-specific, HLA-E-restricted NKG2A^+ or NKG2A^− T cells (E:T, 1:2). In some experiments, 300 μM of respective peptides was also added. At indicated time points, the cells were harvested and analyzed by flow-cytometry, as described below.

[2] = tested on: HLA-E; assay: HLA-E stabilization assay on peptide-pulsed K562-HLA-E cells; conditions: K562-HLA-E*0103/0103 or K562-HLA-E*0101/0101 cells, 300 μM peptide, 16 h, flow-cytometry
Procedure: HLA-E surface stabilization was induced as previously described^32. In brief, TAP-incompetent K562-HLA-E*0101/0101 and K562-HLA-E*0103/0103 (kindly provided by Thorbald van Hall, Leiden University Medical Center) were cultured in Iscove's Modified Dulbecco's Medium (IMDM)+10% FCS (both: Thermo-Scientific). […] (positive control), BZLF1-derived [sequence] or LMP-1 peptides (Peptides&Elephants) in 1 ml Opti-MEM (Thermo-Fisher) for 16 h at 37° C. Peptide-pulsed cells were either stained for HLA-E surface expression by flow-cytometry analysis or washed with complete medium and used for in vitro stimulations.
The following conjugated mouse anti-human mAB were used for flow-cytometry: BV421-CD56 (NCAM 16.2), BV421-CD8 (RPA-T8), BV510-NKG2A (131411), APC/H7-CD107a (H4A3), APC/CD21 (all: BD), APC-CD3 (UCHT1), APC/Cy7-IFNγ (B27), APC-HLA/E (all: Biolegend), APC-Cy7-Granzyme B (Abcore), BZLF1-Alexa488 (Novusbio). Dead cells were identified using LIVE/DEAD Fixable Green Dead Cell Stain Kit (Thermo-Scientific) or 7-Aminoactinomycin D (7-AAD, Invitrogen). Flow-cytometry analysis was performed on a FACSCanto2 platform and FACSDiva Version 10.7.2 (BD).

[3] = biological target: T1, HLA-E (Homo sapiens, UniProt P13747); assay: HLA-E stabilization by UL40 peptides on HLA-E-expressing RMA-S cells; format: cell-based; conditions: for Interpretation: HLA-E binding class of UL40 variant; for Mean MFI: HLA-E expression on the cell surface of RMA-S cells incubated with UL40 peptide; for HLA-E Upregulation: HLA-E-expressing RMA-S cells incubated with UL40 peptide
T1 construct: expressed in transfected cells; host or cells: mouse lymphoma cell line RMA-S/HLA-E/LFA-3, a gift from Chiara Romagnani, DRFZ Berlin
T1 sequence (P61769 21-119): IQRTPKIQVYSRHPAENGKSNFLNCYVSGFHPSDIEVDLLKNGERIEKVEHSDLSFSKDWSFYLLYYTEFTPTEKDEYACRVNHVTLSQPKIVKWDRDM
T1 sequence (P13747 22-358): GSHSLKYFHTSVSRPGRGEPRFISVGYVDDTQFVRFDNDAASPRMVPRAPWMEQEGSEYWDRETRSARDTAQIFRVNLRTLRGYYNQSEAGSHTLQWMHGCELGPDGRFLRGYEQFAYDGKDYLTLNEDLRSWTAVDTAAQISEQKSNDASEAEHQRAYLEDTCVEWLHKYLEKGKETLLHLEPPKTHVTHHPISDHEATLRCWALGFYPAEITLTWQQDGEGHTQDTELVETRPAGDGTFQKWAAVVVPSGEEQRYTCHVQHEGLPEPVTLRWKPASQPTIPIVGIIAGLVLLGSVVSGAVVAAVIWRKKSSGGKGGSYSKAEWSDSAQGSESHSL
Source text: Functionally, the expansion of NKG2C^+ NK cells in response to HCMV infections depends on a highly polymorphic HCMV UL40-encoded peptide in the respective infecting HCMV variant, which upregulates the NKG2C ligand HLA-E on the surface of HCMV-infected cells^52. […] HCMV variants were obtained from all 145 HCMV-seropositive MS patients during an episode of HCMV reactivation between EBV seroconversion and MS diagnosis, as well as from all HCMV seropositive EBNA^high (N=80) and EBNA^low (N=85) controls in any of the serum samples collected from the individuals over time. […] Therefore, we incubated HLA-E-expressing RMA-S cells with each of the 18 UL40 peptides and measured HLA-E expression on the cell surface.

[4] = tested on: HLA-E; assay: LMP-1 dependent HLA-E up-regulation assay in GlialCAM370-389-specific B-cells; format: cell-based, human; conditions: B-cells from 24 healthy blood donors transfected with LMP-1 peptide, 16 h
Procedure: For the HLA-E stabilization experiments, 5×10^6 viable CFSE stained PBMCs were cultured in RPMI-1640+10% FCS in the presence of 10 μg GlialCAM370-389 ([…]), 10 μg of random 20 amino acid peptides (negative control, GenScript) or without peptides (non-peptide control) and 10 ng/mL IL-2 (Peprotech) at 37° C. Every three days, fresh 10 μg GlialCAM370-389 and 10 ng/mL IL-2 were added. After 7 days of co-culture, GlialCAM370-389-specific B-cells were sorted. 1×10^5 GlialCAM370-389-specific B-cells were then individually transfected with the indicated concentrations of the LMP-1 peptides (Peptides&Elephants) using the Pierce Protein Transfection Reagent according to the manufacturer's instructions (Thermo Fisher). After 16 h, the cells were either fixed and analyzed for HLA-E expression by flow cytometry, as described below, or washed once with Opti-MEM I Reduced Serum Medium (Gibco) and subsequently used in NKG2A^+ NK cell inhibition experiments. For the NKG2A^+ NK cell inhibition experiments, sorted NKG2A^+NKG2C^−NKG2D^− NK cells from 24 healthy blood donors were cultured together with peptide-pulsed GlialCAM370-389 B-cells (E:T, 1:1) for 6 h at 37° C. After co-cultivation, the supernatant was removed, cleared by centrifugation (1000×g, 5 min), and analyzed using IFNγ ELISA according to the manufacturer's recommendations (Thermo Fisher).

[5] = tested on: NKG2C+ NK cells; assay: NKG2C+ NK cell response elicited by UL40 peptides; design: species or system human; conditions: UL40 peptide variant encoded by infecting HCMV isolate

Row | Sequence | Interpretation [3] | Mean MFI [3] | HLA-E Upregulation [3] | further results
1 | GGDPHLPPL | – | – | – | viral spread (BZLF1+ K562-CR2-HLA-E cells); effect of peptide on NKG2A+ NK or NKG2A+ CD8+ T cell mediated prevention of the viral spread [1]: no inhibitory effect; HLA-E upregulation / stabilization (surface expression of HLA-E) [2]: neither significant HLA-E upregulation
2 | GMAPRTLLL [HCMV UL40 peptide variant] | Low Binding (↑) | 1575 | 41.5% | –
3 | GSDPHLPTL | – | – | – | viral spread (BZLF1+ K562-CR2-HLA-E cells); effect of peptide on NKG2A+ NK or NKG2A+ CD8+ T cell mediated prevention of the viral spread [1]: no inhibitory effect; HLA-E upregulation / stabilization (surface expression of HLA-E) [2]: neither significant HLA-E upregulation
4 | GTDPHLPTL [only rarely detected EBV LMP-1 peptide variant] | – | – | – | viral spread (BZLF1+ K562-CR2-HLA-E cells); effect of peptide on NKG2A+ NK or NKG2A+ CD8+ T cell mediated prevention of the viral spread [1]: increased viral spread; inhibition of NKG2A+ CD8+ T cells in EBV-dissemination assay (granzyme B-expressing cells) ([1]; peptide-pulsed K562-CR2-HLA-E*0103/0103 and K562-CR2-HLA-E*0101/0101 cells, sorted NKG2A+ CD8+ T cells): caused the inhibition; inhibition of NKG2A+ NK cells in EBV-dissemination assay (granzyme B-expressing cells) ([1]; peptide-pulsed K562-CR2-HLA-E*0103/0103 and K562-CR2-HLA-E*0101/0101 cells, sorted NKG2A+ NK cells): caused the inhibition; upregulation of HLA-E on the surface of GlialCAM370-389-specific B-cells [4]: stable upregulation of HLA-E
5 | VIAPRTLIL [HCMV UL40 peptide variant] | Low Binding (↑) | 1541 | 40.6% | –
6 | VLAPRTLLL [HCMV UL40 peptide variant] | Low Binding (↑) | 2059 | 54.2% | –
7 | VMAPRILIL [HCMV UL40 peptide variant] | Low Binding (↑) | 2056 | 54.2% | –
8 | VMAPRILVL [HCMV UL40 peptide variant] | Low Binding (↑) | 2299 | 60.5% | –
9 | VMAPRSLIL [HCMV UL40 peptide variant] | Low Binding (↑) | 2074 | 54.6% | –
10 | VMAPRSLLL [HCMV UL40 peptide variant] | Low Binding (↑) | 2351 | 61.9% | –
11 | VMAPRTLFL [HCMV UL40 peptide variant] | High Binding (↑↑) (a high-level of HLA-E stabilization, as defined by an HLA-E upregulation of >99.5%) | 3797 | 100.0% | NKG2C+ NK cell response [5]: more potent NKG2C^+ NK cell response
12 | VMAPRTLLL [HCMV UL40 peptide variant] | High Binding (↑↑) (a high-level of HLA-E stabilization, as defined by an HLA-E upregulation of >99.5%) | 3776 | 99.5% | NKG2C+ NK cell response [5]: more potent NKG2C^+ NK cell response
13 | VMAPRTLVL [HCMV UL40 peptide variant] | High Binding (↑↑) (a high-level of HLA-E stabilization, as defined by an HLA-E upregulation of >99.5%) | 3782 | – | NKG2C+ NK cell response [5]: more potent NKG2C^+ NK cell response
14 | VMAPWTLIL [HCMV UL40 peptide variant] | Low Binding (↑) | 1210 | 31.9% | –
15 | VMAPWTLVL [HCMV UL40 peptide variant] | Low Binding (↑) | 1503 | 39.6% | –
16 | VMGPRTLIL [HCMV UL40 peptide variant] | Low Binding (↑) | 1858 | 48.9% | –
17 | VMTPRTLIL [HCMV UL40 peptide variant] | Low Binding (↑) | 2633 | 69.3% | –
18 | VMTPRTLLL [HCMV UL40 peptide variant] | Low Binding (↑) | 2519 | 66.3% | –
19 | VMTPRTLVL [HCMV UL40 peptide variant] | Low Binding (↑) | 2488 | 65.5% | –
20 | VVAPRTLVL [HCMV UL40 peptide variant] | Low Binding (↑) | 1840 | 48.5% | –
